Assays:
[1] = tested on: EGFR-wild-type non-small cell lung cancer (NSCLC)
Description: A group participating in the study was comprised of 132 patients with wild-type epidermal growth factor receptor (EGFR) who progressed on ≧1 platinum-based standard of care therapy and were EGFR tyrosine kinase inhibitor (TKI)-naïve. […] Data were collected at 10+ months.
BM+ patients were defined as having detectable HRG mRNA by RNA-ISH (RNA in situ hybridization) as described above in Example 1.

[2] = cited from earlier work
[3] = tested on: locally advanced or metastatic ER+ and/or PR+, HER2 negative breast cancer; experiment: Randomized, double-blind phase 2 trial of exemestane +/- MM-121 in breast cancer (Example 6)
Protocol: This population is for safety analyses, as well as the primary population for all efficacy parameters.
Analyses were performed on the five pre-specified primary biomarkers, all mechanistically linked to ErbB3 signaling, as measured in FFPE archived tissue blocks. Biomarkers were assessed based on local HR scans. Thresholds for defining biomarker profile positive populations were chosen based on these scans and on results obtained in the above-described ovarian cancer trial. A single two-variable model was assessed using HRG and ErbB2, based on the findings from the above-described ovarian cancer trial. HRs in the biomarker profile positive and negative populations were calculated using a Cox proportional hazard model that included biomarker groups by treatment and stratification factors as additive factors. Only patients with non-missing biomarkers were used in each calculation.
Both assays were performed using FFPE archived tissue blocks.
Biomarker profile positive (BM+) and biomarker profile negative (BM−) subpopulations were defined by dichotomizing biomarker values for HRG and ErbB2. For HRG, a cut point of −5 (RT-PCR score) was chosen based on the local HR scan (value at which HR=1). […] Two separate analyses of ErbB2 levels are provided: (1) ErbB2 levels based on the qIHC assay; and (2) for patients where qIHC data are missing, but HCT results were available, ErbB2 levels were adapted from the reported HCT results, with a score of HCT 2+ being deemed equal to log10(ErbB2)=5.1.
All efficacy analyses for the BM subgroups were performed using a Cox proportional hazard model that included both of the pre-specified strata as additive effects in combination with the treatment effect. The ErbB2 low & HRG high BM+ subpopulation was defined as patients with log10(ErbB2)≦5.1 and HRG RT-PCR>−5.

[4] = tested on: advanced, platinum-resistant ovarian cancer; experiment: Clinical trial in ovarian cancer: paclitaxel with or without MM-121 (Example 5); format: in vivo, human
Protocol: A clinical trial was performed that was designed to allow, inter alia, determination of associations between biomarker profiles and clinical responses. Biomarker data were measured in pre-treatment biopsies and (when available) in archived tumor samples. Results pertaining to predictive biomarkers measured in pre-treatment biopsies are described herein.
In total, six primary biomarkers were measured using 15 assays. For the 5 chromogenic assays (qIHC and RNA-ISH), two different overall scores were used: composite score and top-10 score. Accordingly, 20 different variables were assessed at this stage. A Cox proportional hazard model was used to rank the biomarkers. This method determines if PFS varies with biomarker values differently in the treatment arm relative to the control arm. A P-value cutoff of 0.4 was used to determine which biomarkers would be prioritized for subsequent bivariate analyses.
Based on these two thresholds, a biomarker profile positive (BM+) subpopulation is defined for subsequent analyses as: (ErbB2 levels≦log10 5.1) AND (HRG score≧1) (“ErbB2 low” AND “HRG positive”). Accordingly, a biomarker profile negative (BM−) subpopulation is defined as (ErbB2 levels >log10 5.1) OR (HRG score<1) This definition results in a BM+ prevalence of 34% in the clinical trial population.
In FIG. 8G (progression free survival at 10+ months) and FIG. 8H (overall survival at 10+ months), the treatment arm is represented by a blue line and the control arm is represented by a black line.

[5] = best overall response, BM+ (heregulin+) as worded in FIG. 11 legend
[6] = safety population, count (percentage)

With `C#Cc1cccc(Nc2ncnc3cc(OCCOC)c(OCCOC)cc23)c1` [erlotinib] the “complete response (CR)” value [1, 5] was “none”, the “partial response (PR)” value [1, 5] was 6.7% and the “progressive disease (PD)” value [1, 5] was 53.3%. For the same molecule, the “PFS of BM− (heregulin−) patients compared with BM+ (heregulin+) patients” value (shortened to “PFS … compared with BM+ (heregulin+) patients”) ([1]; patients treated with erlotinib alone (FIG. 12C)) was “much longer”.

For `C=C1C[C@@H]2[C@H](CC[C@]3(C)C(=O)CC[C@@H]23)[C@@]2(C)C=CC(=O)C=C12` [exemestane, 6-methylenandrosta-1,4-diene-3,17-dione, reference compound], the “solubility in N,N-dimethylformamide” value ([2]; N,N-dimethylformamide) is listed as “freely soluble”, the solubility in methanol ([2]; methanol) is listed as “soluble” and the solubility in water ([2]; water) is listed as “practically insoluble”. For the same molecule, the objective response rate ([3]; BM+ patients) was 0%, the objective response rate ([3]; BM− patients) was 5.9% and the “time within which all treated patients exhibited disease progression” value ([3]; biomarker profile positive tumors (FIG. 10B)) was no more than 20 weeks. For the same molecule, the “PFS … compared with BM+ (heregulin+) patients” value ([3]; patients treated with exemestane alone (FIG. 10E)) was “much longer”, the “Subjects with CTCAE grade 3 or higher TEAE” value [3, 6] was 15 ( 25.4) and the “Subjects with TEAE leading to death” value [3, 6] was 1 ( 1.7). The “Subjects with TEAE leading to dose discontinuation” value [3, 6] was 0, the “Subjects with TEAE related to study drug (a)” value [3, 6] was 32 ( 54.2) and the “Subjects with at least one AE” value [3, 6] was 51 ( 86.4). For the same molecule, the “Subjects with at least one TEAE” value [3, 6] was 50 ( 84.7) and the “Subjects with serious TEAE” value [3, 6] was 11 ( 18.6).

For `CC(=O)O[C@H]1C(=O)[C@@]2(C)[C@H]([C@H](OC(=O)c3ccccc3)[C@]3(O)C[C@H](OC(=O)[C@H](O)[C@@H](NC(=O)c4ccccc4)c4ccccc4)C(C)=C1C3(C)C)[C@]1(OC(C)=O)CO[C@@H]1C[C@@H]2O` [paclitaxel, Paclitaxel, reference compound], the “PFS … compared with BM+ (heregulin+) patients” value ([4]; patients treated with paclitaxel alone (FIG. 8I)) was “much longer”.

B1: MM-121: anti-ErbB3 monoclonal antibody having VH and VL sequences as shown in SEQ ID NOs: 1 and 2 (antibody, V domains shown)
VH: EVQLLESGGGLVQPGGSLRLSCAASGFTFSHYVMAWVRQAPGKGLEWVSSISSSGGWTLYADSVKGRFTISRDNSKNTLYLQMNSLRAEDTAVYYCTRGLKMATIFDYWGQGTLVTVSS
VL: QSALTQPASVSGSPGQSITISCTGTSSDVGSYNVVSWYQQHPGKAPKLIIYEVSQRPSGVSNRFSGSKSGNTASLTISGLQTEDEADYYCCSYAGSSIFVIFGGGTKVTVL
With B1 the “HR (trt:ctrl)” value ([4]; BM+, subgroup ErbB3 score ≧2) was 0.33, the “HR (trt:ctrl)” value ([4]; BM+, subgroup ErbB4 score 0) was 0.13 and the “HR (trt:ctrl)” value ([4]; BM−, subgroup ErbB4 score ≧1) was 2.20. The “cumulative HR” value ([4]; patients with detectable levels of HRG and low levels of ErbB2) was less than 0.5, the “PFS versus erlotinib alone” value ([1]; unselected overall population (FIG. 12A)) was “overall better outcomes” and the HR ([3]; Group ErbB2 < 5.1 (HCT), BM negative) was 3.00. The HR ([3]; Group ErbB2 < 5.1 (HCT), BM population) was 0.82, the HR ([3]; Group ErbB2 < 5.1 (HCT), BM positive) was 0.62 and the HR ([3]; Group ErbB2 < 5.1 (qIHC) & HRG > −5, BM negative) was 1.30. The HR ([3]; Group ErbB2 < 5.1 (qIHC) & HRG > −5, BM population) was 0.86, the HR ([3]; Group ErbB2 < 5.1 (qIHC) & HRG > −5, BM positive) was 0.32 and the HR ([3]; Group ErbB2 < 5.1 (qIHC), BM negative) was 3.00. For the same molecule, the HR ([3]; Group ErbB2 < 5.1 (qIHC), BM population) was 1.16, the HR ([3]; Group ErbB2 < 5.1 (qIHC), BM positive) was 0.84 and the HR ([3]; Group HRG > −5, BM negative) was 0.99. The HR ([3]; Group HRG > −5, BM population) was 0.68, the HR ([3]; Group HRG > −5, BM positive) was 0.35 and the “benefit (PFS) from adding MM-121 to exemestane therapy” value ([3]; biomarker negative patient population (FIG. 10A)) was “little if any benefit”. For the same molecule, the “benefit (PFS) from adding MM-121 to exemestane therapy” value ([3]; biomarker positive population (FIG. 10B)) was “dramatic benefit”, the “decrease in risk of death” value ([3]; full patient population, overall survival, vs standard-of-care arm) was 59% and the “decrease in risk of progression” value ([3]; heregulin-positive patients, n=34, final analysis) was 74%. For the same molecule, the HR ([3]; no selection, BM population N=115) was 0.75.

Source: US20170210810A1, “BIOMARKER PROFILES FOR PREDICTING OUTCOMES OF CANCER THERAPY WITH ERBB3 INHIBITORS AND/OR CHEMOTHERAPIES” (Merrimack Pharmaceuticals, Inc., priority 2013, published 2017)
